Test results from publication PMC5063953 (Biochemical Pharmacology, 2016).

Key:
[1] = molecular target: human GLP-1R Y3.53^250A (human) (UniProt P43220)
[2] = molecular target: human GLP-1R R5.56^326A (human) (UniProt P43220)
[3] = molecular target: human GLP-1R R5.40^310A (human) (UniProt P43220)
[4] = molecular target: human GLP-1R R6.37^348A (human) (UniProt P43220)
[5] = molecular target: human GLP-1R E7.63^408A (human) (UniProt P43220)
[6] = molecular target: human GLP-1R K4.64^288A (human) (UniProt P43220)
[7] = molecular target: human GLP-1R K6.40^351A (human) (UniProt P43220)
[8] = molecular target: human GLP-1R N2.52^182A (human) (UniProt P43220)
[9] = molecular target: N-terminally double c-myc labelled wildtype human GLP-1R (human) (UniProt P43220)
[10] = molecular target: human GLP-1R R2.46^176A (human) (UniProt P43220)
[11] = molecular target: human GLP-1R R3.30^227A (human) (UniProt P43220)
[12] = molecular target: human GLP-1R K6.35^346A (human) (UniProt P43220)
[13] = molecular target: human GLP-1R Q7.65^410A (human) (UniProt P43220)
[14] = molecular target: human GLP-1R Y3.53^250A (human) (UniProt P43220); experiment: radioligand binding
[15] = molecular target: human GLP-1R R5.56^326A (human) (UniProt P43220); experiment: radioligand binding
[16] = molecular target: human GLP-1R R5.40^310A (human) (UniProt P43220); experiment: radioligand binding
[17] = molecular target: human GLP-1R R6.37^348A (human) (UniProt P43220); experiment: radioligand binding
[18] = molecular target: human GLP-1R E7.63^408A (human) (UniProt P43220); experiment: radioligand binding
[19] = molecular target: human GLP-1R K4.64^288A (human) (UniProt P43220); experiment: radioligand binding
[20] = molecular target: human GLP-1R K6.40^351A (human) (UniProt P43220); experiment: radioligand binding
[21] = molecular target: N-terminally double c-myc labelled wildtype human GLP-1R (human) (UniProt P43220); experiment: radioligand binding
[22] = molecular target: human GLP-1R R2.46^176A (human) (UniProt P43220); experiment: radioligand binding
[23] = molecular target: human GLP-1R R3.30^227A (human) (UniProt P43220); experiment: radioligand binding
[24] = molecular target: human GLP-1R K6.35^346A (human) (UniProt P43220); experiment: radioligand binding
[25] = molecular target: human GLP-1R Q7.65^410A (human) (UniProt P43220); experiment: radioligand binding
hGIPR = conditions: R5.40A; ref [71]; cited from earlier work

Substance: exendin-4 (from UniProt P26349 48-87) (peptide)
- −Log KA (functional affinity) from operational model fit of cAMP accumulation curves [1]: 9.37 −Log KA
- −Log KA (functional affinity) from operational model fit of pERK1/2 curves [1]: 8.11 −Log KA
- −Log KA (functional affinity) from operational model fit of cAMP accumulation curves [2]: 9.22 −Log KA
- −Log KA (functional affinity) from operational model fit of iCa2+ mobilisation curves [2]: 7.1 −Log KA
- −Log KA (functional affinity) from operational model fit of pERK1/2 curves [2]: 8.33 −Log KA
- −Log KA (functional affinity) from operational model fit of cAMP accumulation curves [3]: 7.79 −Log KA
- −Log KA (functional affinity) from operational model fit of pERK1/2 curves [3]: 7.53 −Log KA
- −Log KA (functional affinity) from operational model fit of cAMP accumulation curves [4]: 9.37 −Log KA
- −Log KA (functional affinity) from operational model fit of iCa2+ mobilisation curves [4]: 7.08 −Log KA
- −Log KA (functional affinity) from operational model fit of pERK1/2 curves [4]: 8.35 −Log KA
- −Log KA (functional affinity) from operational model fit of cAMP accumulation curves [5]: 8.89 −Log KA
- −Log KA (functional affinity) from operational model fit of iCa2+ mobilisation curves [5]: 7.01 −Log KA
- −Log KA (functional affinity) from operational model fit of pERK1/2 curves [5]: 8.35 −Log KA
- −Log KA (functional affinity) from operational model fit of cAMP accumulation curves [6]: 8.16 −Log KA
- −Log KA (functional affinity) from operational model fit of pERK1/2 curves [6]: 7.01 −Log KA
- −Log KA (functional affinity) from operational model fit of cAMP accumulation curves [7]: 9.31 −Log KA
- −Log KA (functional affinity) from operational model fit of iCa2+ mobilisation curves [7]: 7.15 −Log KA
- −Log KA (functional affinity) from operational model fit of pERK1/2 curves [7]: 8.12 −Log KA
- −Log KA (functional affinity) from operational model fit of cAMP accumulation curves [8]: 9.16 −Log KA
- −Log KA (functional affinity) from operational model fit of pERK1/2 curves [8]: 8.21 −Log KA
- −Log KA (functional affinity) from operational model fit of cAMP accumulation curves [9]: 9.24 −Log KA
- −Log KA (functional affinity) from operational model fit of iCa2+ mobilisation curves [9]: 7.46 −Log KA
- −Log KA (functional affinity) from operational model fit of pERK1/2 curves [9]: 8.31 −Log KA
- −Log KA (functional affinity) from operational model fit of cAMP accumulation curves [10]: 8.95 −Log KA
- −Log KA (functional affinity) from operational model fit of iCa2+ mobilisation curves [10]: 7.39 −Log KA
- −Log KA (functional affinity) from operational model fit of pERK1/2 curves [10]: 8.12 −Log KA
- −Log KA (functional affinity) from operational model fit of cAMP accumulation curves [11]: 8.13 −Log KA
- −Log KA (functional affinity) from operational model fit of iCa2+ mobilisation curves [11]: 6.82 −Log KA
- −Log KA (functional affinity) from operational model fit of pERK1/2 curves [11]: 7.31 −Log KA
- −Log KA (functional affinity) from operational model fit of cAMP accumulation curves [12]: 9.91 −Log KA
- −Log KA (functional affinity) from operational model fit of iCa2+ mobilisation curves [12]: 7.78 −Log KA
- −Log KA (functional affinity) from operational model fit of pERK1/2 curves [12]: 8.21 −Log KA
- −Log KA (functional affinity) from operational model fit of cAMP accumulation curves [13]: 9.41 −Log KA
- −Log KA (functional affinity) from operational model fit of iCa2+ mobilisation curves [13]: 7.1 −Log KA
- −Log KA (functional affinity) from operational model fit of pERK1/2 curves [13]: 8.35 −Log KA
- pKi [14]: 8.68 pKi
- pKi [15]: 8.59 pKi
- pKi [16]: 7.99 pKi
- pKi [17]: 8.8 pKi
- pKi [18]: 8.29 pKi
- pKi [19]: 7.39 pKi
- pKi [20]: 8.92 pKi
- pKi [21]: 8.87 pKi
- pKi [22]: 8.61 pKi
- pKi [23]: 7.6 pKi
- pKi [24]: 9.34 pKi
- pKi [25]: 9.08 pKi

Substance: glucose-dependent insulinotropic peptide (YAEGTFISDYSIAMDKIHQQDFVNWLLAQKGKKNDWKHNITQ; Gastric inhibitory polypeptide; UniProt P09681 52-93, looked up) [GIP]
- Effect compared with WT: cAMP production (hGIPR): Reduced GIP mediated cAMP production.
